How the values were obtained:
[1] = biological target: T1, human serum albumin (HSA) (human, UniProt P02768 25-609); test: SPR (Biacore) kinetic analysis, pH 6.0 and pH 7.4 running buffer; the pH for each end is not stated; lower end of the range; pH 6.0 or pH 7.4 not told
T1 construct: mature; also called HuSA; HSA (Sigma)

[2] = biological target: T2, mouse serum albumin (MSA) (mouse, UniProt P07724 25-608); test: SPR (Biacore) kinetic analysis, MSA, pH 6.0; reference HSA-18 monomer
[3] = biological target: PD-L1 (PD-1/PD-L1 blockade Bioassay, Promega) (UniProt Q9NZQ7 19-290, limits assumed); test: cell-based or functional assay
Sequence of PD-L1 (PD-1/PD-L1 blockade Bioassay, Promega) (Q9NZQ7 19-290 limits assumed): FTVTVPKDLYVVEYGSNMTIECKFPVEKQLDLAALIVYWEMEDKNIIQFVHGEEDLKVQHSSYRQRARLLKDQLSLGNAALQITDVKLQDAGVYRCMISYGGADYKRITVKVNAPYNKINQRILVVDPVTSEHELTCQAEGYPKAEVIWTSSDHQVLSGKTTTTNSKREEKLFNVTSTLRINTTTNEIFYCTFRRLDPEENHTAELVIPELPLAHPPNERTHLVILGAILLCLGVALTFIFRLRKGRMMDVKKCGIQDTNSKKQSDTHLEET

[4] = biological target: T2, mouse serum albumin (MSA); test: binding ELISA on coated MSA, pH 7.4 by the legend (the panel's title prints pH 7)
[5] = biological target: T3, human PD-L1-Fc (R&D Systems) (human, UniProt Q9NZQ7 19-239); test: SPR (Biacore T200), PD-L1-Fc amine-coupled to CM5 chip, AFFIMER as analyte, 1:1 Langmuir fit
T3 construct: Bought from R&D Systems; also called rhPD-L1-Fc; human PD-L1 Fc chimeric protein; not shown: the Fc part of the bought chimera is not described
T3 sequence (Q9NZQ7 19-239): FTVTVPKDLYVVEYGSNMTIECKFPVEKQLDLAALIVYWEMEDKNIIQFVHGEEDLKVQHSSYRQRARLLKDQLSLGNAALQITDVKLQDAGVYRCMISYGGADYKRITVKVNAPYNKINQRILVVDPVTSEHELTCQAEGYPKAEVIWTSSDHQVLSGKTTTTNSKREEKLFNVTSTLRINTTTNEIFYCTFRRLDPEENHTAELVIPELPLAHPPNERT
Description: To analyze PD-L1-Fc binding kinetics, a Biacore T200 kinetic analysis was performed using running buffer HBS-EP+ and series S sensor CM5 (GE Healthcare) chip Fc2 immobilized with PD-L1-Fc (R&D Systems) in 10 mM sodium acetate pH 4.0 using amine coupling reagents (GE Healthcare). The concentration titration of ILF AFFIMER® proteins was run as analyte at a flow rate of 30 μl/min. […] with 3 mM NaOH (GE healthcare) for 20 seconds at 20 μl/min flow rate. The Fc2-1 data blank was subtracted and fit to a 1:1 Langmuir binding model (Biacore evaluation software; GE) to calculate an apparent KD value.

T1 sequence (P02768 25-609): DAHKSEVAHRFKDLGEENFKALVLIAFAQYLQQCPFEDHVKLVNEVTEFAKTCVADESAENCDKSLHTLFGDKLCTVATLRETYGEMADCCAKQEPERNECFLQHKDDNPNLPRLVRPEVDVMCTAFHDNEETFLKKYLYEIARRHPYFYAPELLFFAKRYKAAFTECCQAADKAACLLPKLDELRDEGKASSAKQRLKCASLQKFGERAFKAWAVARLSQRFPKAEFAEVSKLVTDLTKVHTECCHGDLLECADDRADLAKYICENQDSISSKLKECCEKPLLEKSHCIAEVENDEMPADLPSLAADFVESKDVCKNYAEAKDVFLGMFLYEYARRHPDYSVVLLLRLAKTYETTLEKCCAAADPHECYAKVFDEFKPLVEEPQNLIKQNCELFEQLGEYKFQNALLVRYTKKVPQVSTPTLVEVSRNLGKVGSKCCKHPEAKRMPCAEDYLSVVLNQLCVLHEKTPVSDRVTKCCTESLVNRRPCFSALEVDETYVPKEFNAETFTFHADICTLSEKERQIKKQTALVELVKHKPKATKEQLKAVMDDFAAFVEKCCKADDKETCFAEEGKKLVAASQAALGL

Row | Binder | Kd [5] | koff [5] | kon [5] | also measured
1 | HSA-18 (designed binder, also called HSA-18 monomer) MIPRGLSEAKPATPEIQEIVDKVKPQLEEKTNETYGKLEAVQYKTQVLADWWQAKWPHSTNYYIKVRAGDNKYMHLKVFNGPYKVHQSSGGADRVLTGYQVDKNKDDELTGFHHHHHH |  |  |  | Kd [1]: 109 to 152 nM
2 | AVA04-251 XT60 (designed binder, Made in E. coli and purified on NiNTA) MIPRGLSEAKPATPEIQEIVDKVKPQLEEKTNETYGKLEAVQYKTQVLAREGRQDWVLSTNYYIKVRAGDNKYMHLKVFNGPWVPFPHQQLADRVLTGYQVDKNKDDELTGFAEAAAKEAAAKEAAAKEAAAKEAAAKEAAAKMIPRGLSEAKPATPEIQEIVDKVKPQLEEKTNETYGKLEAVQYKTQVLAREGRQDWVLSTNYYIKVRAGDNKYMHLKVFNGPWVPFPHQQLADRVLTGYQVDKNKDDELTGFAEAAAKEAAAKEAAAKEAAAKEAAAKEAAAKMIPRGLSEAKPATPEIQEIVDKVKPQLEEKTNETYGKLEAVQYKTQVLADWWQAKWPHSTNYYIKVRAGDNKYMHLKVFNGPYKVHQSSGGADRVLTGYQVDKNKDDELTGFHHHHHH |  |  |  | fold of the monomer serum albumin binding AFFIMER affinity [2]: ≤ 2 fold
3 | AVA04-251 XT14 (designed binder) MIPRGLSEAKPATPEIQEIVDKVKPQLEEKTNETYGKLEAVQYKTQVLAREGRQDWVLSTNYYIKVRAGDNKYMHLKVFNGPWVPFPHQQLADRVLTGYQVDKNKDDELTGFAEAAAKEAAAKEAAAKEAAAKEAAAKEAAAKMIPRGLSEAKPATPEIQEIVDKVKPQLEEKTNETYGKLEAVQYKTQVLAREGRQDWVLSTNYYIKVRAGDNKYMHLKVFNGPWVPFPHQQLADRVLTGYQVDKNKDDELTGFAEAAAKEAAAKEAAAKEAAAKEAAAKEAAAKMIPRGLSEAKPATPEIQEIVDKVKPQLEEKTNETYGKLEAVQYKTQVLANFFQRRWPGSTNYYIKVRAGDNKYMHLKVFNGPWKFRNTDRGADRVLTGYQVDKNKDDELTGFHHHHHH |  |  |  | half-maximal concentration in the PD-1/PD-L1 blockade Bioassay (Promega), fold change relative to assay buffer; the table's head prints IC50 (nM), the text calls it EC50 [3]: 176 nM
4 | AVA04-251 XT15 (designed binder) MIPRGLSEAKPATPEIQEIVDKVKPQLEEKTNETYGKLEAVQYKTQVLAREGRQDWVLSTNYYIKVRAGDNKYMHLKVFNGPWVPFPHQQLADRVLTGYQVDKNKDDELTGFAEAAAKEAAAKEAAAKEAAAKEAAAKEAAAKMIPRGLSEAKPATPEIQEIVDKVKPQLEEKTNETYGKLEAVQYKTQVLANFFQRRWPGSTNYYIKVRAGDNKYMHLKVFNGPWKFRNTDRGADRVLTGYQVDKNKDDELTGFAEAAAKEAAAKEAAAKEAAAKEAAAKEAAAKMIPRGLSEAKPATPEIQEIVDKVKPQLEEKTNETYGKLEAVQYKTQVLAREGRQDWVLSTNYYIKVRAGDNKYMHLKVFNGPWVPFPHQQLADRVLTGYQVDKNKDDELTGFHHHHHH |  |  |  | half-maximal concentration in the PD-1/PD-L1 blockade Bioassay (Promega), fold change relative to assay buffer; the table's head prints IC50 (nM), the text calls it EC50 [3]: 434 nM
5 | AVA04-251 XT61 (designed binder, Made in E. coli and purified on NiNTA) MIPRGLSEAKPATPEIQEIVDKVKPQLEEKTNETYGKLEAVQYKTQVLAREGRQDWVLSTNYYIKVRAGDNKYMHLKVFNGPWVPFPHQQLADRVLTGYQVDKNKDDELTGFAEAAAKEAAAKEAAAKEAAAKEAAAKEAAAKMIPRGLSEAKPATPEIQEIVDKVKPQLEEKTNETYGKLEAVQYKTQVLADWWQAKWPHSTNYYIKVRAGDNKYMHLKVFNGPYKVHQSSGGADRVLTGYQVDKNKDDELTGFAEAAAKEAAAKEAAAKEAAAKEAAAKEAAAKMIPRGLSEAKPATPEIQEIVDKVKPQLEEKTNETYGKLEAVQYKTQVLAREGRQDWVLSTNYYIKVRAGDNKYMHLKVFNGPWVPFPHQQLADRVLTGYQVDKNKDDELTGFHHHHHH |  |  |  | fold of the monomer serum albumin binding AFFIMER affinity [2]: ≤ 2 fold
6 | HSA-41 (designed binder, Made in E. coli; also called AVA-41; AFFIMER® XT “AVA-41”) MIPRGLSEAKPATPEIQEIVDKVKPQLEEKTNETYGKLEAVQYKTQVLANFFQRRWPGSTNYYIKVRAGDNKYMHLKVFNGPWKFRNTDRGADRVLTGYQVDKNKDDELTGFHHHHHH |  |  |  | EC50 (read off the curve) [4]: ~5 nM
7 | AVA04-236 (designed binder) MIPRGLSEAKPATPEIQEIVDKVKPQLEEKTNETYGKLEAVQYKTQVLAKEHGPDSWWSTNYYIKVRAGDNKYMHLKVFNGPQEKNQWVEEADRVLTGYQVDKNKDDELTGFHHHHHH | 5.43 nM | 0.00977 s⁻¹ | 1.8e+06 M⁻¹ s⁻¹ | 
8 | AVA04-269 (designed binder) MIPRGLSEAKPATPEIQEIVDKVKPQLEEKTNETYGKLEAVQYKTQVLAKEYGPEEWWSTNYYIKVRAGDNKYMHLKVFNGPGDYEQVLIHADRVLTGYQVDKNKDDELTGFHHHHHH | 1.68 nM | 0.00345 s⁻¹ | 2.05e+06 M⁻¹ s⁻¹ | 
9 | AVA04-261 (designed binder) MIPRGLSEAKPATPEIQEIVDKVKPQLEEKTNETYGKLEAVQYKTQVLAHAYGPRDWDSTNYYIKVRAGDNKYMHLKVFNGPPADHVLEEAADRVLTGYQVDKNKDDELTGFHHHHHH | 2.95 nM | 0.0109 s⁻¹ | 3.68e+06 M⁻¹ s⁻¹ | 

Source: patent US20230272081A1 (AVACTA LIFE SCIENCES, published 2023)
